This is an account of results in patent US20100305304A1 (COMPLIX, published 2010).

Data set [1] concerns the molecule itself. Nature of the data set: self-association of the peptide chains into a homotrimer; CD thermal unfolding curve fitted to a monomer-trimer equilibrium. The method, then:
The said synthesized peptide was dissolved at a concentration of 292 microM in 20 mM phosphate buffer (PBS), 150 mM NaCl, pH 7.2. The CD spectra were measured between […], at 5 and 90 degrees Celsius (FIG. 3). The spectrum at 5 degrees Celsius was indicative of a high alpha-helical secondary structure content, in agreement with the expectation that all heptad regions, but not all of the flanking residues, would assemble as alpha-helical coiled coils.
To analyse whether the temperature-induced transition between helical and nonhelical states was reversible, a forward (up) and backward (down) thermal scan was performed on the same sample, by recording the CD signal at […] as a function of temperature at a scanning rate of about 1 degree Celsius per minute (FIG. 4). It was observed that the up and down scans almost perfectly coincided, thereby confirming the quantitative unfolding and refolding of the peptides in the sample.
FIG. 5 represents fitting of a theoretic equation for trimeric association to experimental data. The experimental data are taken from FIG. 4, curve labeled “UP”. The theoretic equations used are listed supra. The fitted parameters (fitting results) are listed at the right in FIG. 5. “Transit. T” corresponds to Tₜ, but is expressed here in degrees Celsius. The parameter “delta Cₚ” was kept constant at 3.0 kJ mol⁻¹ K⁻¹. […]

Data set [2] deals with the molecule itself. Nature of the data set: self-association of the peptide chains into a homotrimer; sedimentation equilibrium ultracentrifugation.

B1: reference peptide Q2a (Ac-MSIEEIQKQQAAIQKQIAAIQKQIYRMTP-NH2) (peptide)
peptide: Ac-MSIEEIQKQQAAIQKQIAAIQKQIYRMTP-NH2
notes: Synthetic peptide; Three copies associate non-covalently into a parallel alpha-helical coiled coil; also called untagged peptide
Regarding B1, the binding result in data set [1] is “binds”.

B2: Q2aI peptide (Ac-MSIEEIQKQIAAIQKQIAAIQKQIYRMTP-NH2) (peptide)
peptide: Ac-MSIEEIQKQIAAIQKQIAAIQKQIYRMTP-NH2
notes: Synthetic peptide; also called untagged peptide
As to B2, the binding result in data set [2] is “binds”.
